We go through 14 substances from US20100098730A1.

For assay [1], the target named is human FcRn (heterodimer of an alpha chain and a β2-microglobulin subunit), soluble (human) (UniProt P55899). As to the kind of experiment: FcRn affinity at pH 6.0, as shown in FIG. 24 (BIAcore, human FcRn).
For assay [2] the target is unchanged. As to the kind of experiment: SPR (BIAcore), soluble human FcRn injected over chip-coupled IgG, pH 6.0, 25 C, monovalent KD. In general terms: SPR reads the build-up and loss of mass on a sensor chip optically.
The target is the same in assay [3]. As to the kind of experiment: SPR, soluble human FcRn injected over IgG-coupled chip, monovalent KD, pH 6.0, 25 C.
Assay [4] shares this target. Briefly: SPR (BIAcore 3000), IgG injected over chip-coupled human FcRn, pH 6.0, 25 C; apparent (bivalent) KD estimated from the steady state curves of FIG. 1, Run 2.
For assay [5] the target is unchanged. As to the kind of experiment: SPR, bivalent IgG over human FcRn-coupled chip, steady state, apparent KD, pH 6.0, 25 C, second run (about two fold higher RU of FcRn).
Assay [6] addresses cynomolgus monkey FcRn (cyno alpha chain and cyno β2-microglobulin), soluble (cynomolgus monkey) (UniProt Q8SPV9). Briefly: SPR (BIAcore 3000), soluble cyno FcRn injected over chip-coupled IgG, pH 6.0, 25 C; monovalent KD (a) determined by ratio of koff to kon.
Assay [7] addresses human FcRn (heterodimer of an alpha chain and a β2-microglobulin subunit), soluble (human) (UniProt P55899). Briefly: SPR, human FcRn; fold over wildtype, summarized from FIGS. 4 and 5.
The target is the same in assay [8]. As to the kind of experiment: SPR (BIAcore 3000), soluble human FcRn injected over chip-coupled IgG, pH 6.0, 25 C.
Assay [9] shares this target. Briefly: SPR (BIAcore 3000), soluble human FcRn injected over chip-coupled IgG, pH 6.0, 25 C; monovalent KD (a) determined by ratio of koff to kon.
Assay [10] shares this target. As to the kind of experiment: SPR (BIAcore 3000), soluble human FcRn injected over chip-coupled IgG, pH 6.0, 25 C; monovalent KD (b) determined by fitting the steady state RU against concentration.
In assay [11] the target is cynomolgus monkey FcRn (cyno alpha chain and cyno β2-microglobulin), soluble (cynomolgus monkey) (UniProt Q8SPV9). As to the kind of experiment: SPR (BIAcore 3000), soluble cyno FcRn injected over chip-coupled IgG, pH 6.0, 25 C.
The target is the same in assay [12]. As to the kind of experiment: SPR (BIAcore 3000), soluble cyno FcRn injected over chip-coupled IgG, pH 6.0, 25 C; monovalent KD (b) determined by fitting the steady state RU against concentration.
Assay [13] concerns the target human FcRn (heterodimer of an alpha chain and a β2-microglobulin subunit), soluble (human) (UniProt P55899). Briefly: SPR (BIAcore 3000), IgG injected over chip-coupled human FcRn, pH 6.0, 25 C; apparent (bivalent) KD estimated from the steady state curves of FIG. 1, Run 1.

UniProt Q8SPV9, sequence (Q8SPV9 24-297 limits assumed, chain 1 of 2): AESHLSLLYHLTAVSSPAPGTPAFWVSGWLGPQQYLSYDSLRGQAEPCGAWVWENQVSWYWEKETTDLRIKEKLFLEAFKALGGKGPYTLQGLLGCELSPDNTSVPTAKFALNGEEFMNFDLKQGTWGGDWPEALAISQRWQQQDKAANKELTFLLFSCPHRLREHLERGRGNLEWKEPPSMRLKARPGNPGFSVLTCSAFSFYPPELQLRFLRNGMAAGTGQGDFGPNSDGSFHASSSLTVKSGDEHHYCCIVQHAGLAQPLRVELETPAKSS
UniProt Q8SPV9, sequence (Q8SPW0 21-119 limits assumed, chain 2 of 2, further chain): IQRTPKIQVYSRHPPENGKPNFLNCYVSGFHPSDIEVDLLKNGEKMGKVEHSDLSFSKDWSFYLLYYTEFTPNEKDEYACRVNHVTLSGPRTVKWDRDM
UniProt P55899, sequence (P55899 24-297 limits assumed, chain 1 of 2): as the sequence (Q8SPV9 24-297 limits assumed, chain 1 of 2) above, with D39N, Q44E, S99G, G189S, N190S, M217L, T269S counted along it
UniProt P55899, sequence (P61769 21-119 limits assumed, chain 2 of 2, further chain): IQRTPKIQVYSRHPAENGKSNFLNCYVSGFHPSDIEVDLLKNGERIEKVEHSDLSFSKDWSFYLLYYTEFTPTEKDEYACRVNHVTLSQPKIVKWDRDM

In assay [1], “IgG1 variant N434A of a different human antibody” had a fold higher FcRn affinity at pH 6.0 compared to the wildtype antibody of 3 fold.

In turn, N434A (antibody) returned a Kd in assay [2] of 0.57 µM.

In assay [2], N434W (antibody) returned a Kd of 0.044 µM.

Substance “anti-HER2 (trastuzumab) IgG1 variant M252Y/V308P/N434Y (antibody)” came in with a Kd in assay [2] of 0.0037 µM. In assay [3], this substance gave a fold improvement of affinity over the wild-type IgG1 of 450 fold.

“anti-VEGF (Bevacizumab) IgG1 variant A378V (antibody)”: in [4], the Kd is 0.5 µM.

In the case of “anti-VEGF (Bevacizumab) IgG1 variant N434A (antibody)”, the Kd in assay [5] amounted to 0.25 µM.

In the case of “anti-VEGF (Bevacizumab) IgG1 variant N434H (antibody)”, the Kd in assay [4] was 0.1 µM; in [6], 0.45 µM; in [9] it was 0.42 µM; in assay [10], 0.47 µM; in assay [12], 0.47 µM. The Bivalent Affinity Fold increase at pH 6.0 in [7] is 9 fold. Besides, the Bivalent Affinity Fold increase at pH 7.4 in assay [7] amounted to 6 fold. The same substance gave a Monovalent Affinity Fold increase at pH 6.0 in assay [7] of 3 fold. The koff (usually the first-order rate constant of dissociation) in [8] was 0.166 s⁻¹; in assay [11], 0.218 s⁻¹. For the same substance, the kon (usually the second-order rate constant of association) was determined as 400000 M⁻¹ s⁻¹ in assay [8] and 480000 M⁻¹ s⁻¹ in assay [11].

In the case of “anti-VEGF (Bevacizumab) IgG1 variant T307Q (antibody)”, the Kd in assay [4] is 0.25 µM.

As to “anti-VEGF (Bevacizumab) IgG1 variant T307Q/A378V (antibody)”, the Kd in [4] is 0.09 µM.

On to “anti-VEGF (Bevacizumab) IgG1 variant T307Q/A378V/Y436I (antibody)”, for which the Kd in assay [4] was 0.03 µM.

For the substance “anti-VEGF (Bevacizumab) IgG1 variant T307Q/E380A/N434S (antibody)”, the Kd in assay [6] was 0.153 µM; in assay [9], 0.146 µM; in [10] it was 0.148 µM; in assay [12], 0.16 µM.

Turning to “anti-VEGF (Bevacizumab) IgG1 variant T307Q/N434A (antibody)”, the Kd in [6] was 0.24 µM; in assay [9] it was 0.24 µM; in [10], 0.258 µM; in assay [13], 0.18 µM; in assay [12], 0.241 µM.

For “anti-VEGF (Bevacizumab) IgG1 variant T307Q/Y436I (antibody)”, in assay [4], the Kd is 0.07 µM.

As for “anti-VEGF (Bevacizumab) IgG1 variant V308P/N434A (antibody)”, the Kd in [4] was 0.008 µM; in assay [6], 0.0666 µM; in assay [9] it was 0.072 µM; in [10], 0.076 µM; in assay [12] it was 0.0699 µM.
